How the values were obtained:
Experiment in all cases: cell-based or functional assay
[1] = molecular target: HIV-1 Env of pseudovirus 231965.c01 (HIV-1)
[2] = molecular target: HIV-1 Env of pseudovirus X2131_C1_B5 (HIV-1)
[3] = molecular target: HIV-1 Env of pseudovirus 3016.v5.c45 (HIV-1)
[4] = molecular target: HIV-1 Env of pseudovirus 89-F1_2_25 (HIV-1)
[5] = molecular target: HIV-1 Env of pseudovirus X1254_c3 (HIV-1)
[6] = molecular target: HIV-1 Env of pseudovirus A07412M1.vrc12 (HIV-1)
[7] = molecular target: HIV-1 Env of pseudovirus P1981_C5_3 (HIV-1)
[8] = molecular target: HIV-1 Env of pseudovirus T255-34 (HIV-1)
[9] = molecular target: HIV-1 Env of pseudovirus 6545.v4.c1 (HIV-1)
[10] = molecular target: HIV-1 Env of pseudovirus BJOX028000.10.3 (HIV-1)
[11] = molecular target: HIV-1 Env of pseudovirus R2184.c04 (HIV-1)
[12] = molecular target: HIV-1 Env of pseudovirus 6535.3 (HIV-1)
[13] = molecular target: HIV-1 Env of pseudovirus 7030102001E5(Rev-) (HIV-1)
[14] = molecular target: HIV-1 Env of pseudovirus Q259.d2.17 (HIV-1)
[15] = molecular target: HIV-1 Env of pseudovirus WEAU_d15_410_787 (HIV-1)
[16] = molecular target: HIV-1 Env of pseudovirus ZM249M.PL1 (HIV-1)
[17] = molecular target: HIV-1 Env of pseudovirus Ce1172_H1 (HIV-1)
[18] = molecular target: HIV-1 Env of pseudovirus Q461.e2 (HIV-1)
[19] = molecular target: HIV-1 Env of pseudovirus TRO.11 (HIV-1)
[20] = molecular target: HIV-1 Env of pseudovirus Ce1176_A3 (HIV-1)
[21] = molecular target: HIV-1 Env of pseudovirus RHPA4259.7 (HIV-1)
[22] = molecular target: HIV-1 Env of pseudovirus ZM247v1(Rev-) (HIV-1)
[23] = molecular target: HIV-1 Env of pseudovirus Ce2060_G9 (HIV-1)
[24] = molecular target: HIV-1 Env of pseudovirus CAP210.2.00.E8 (HIV-1)
[25] = molecular target: HIV-1 Env of pseudovirus HIV-16845-2.22 (HIV-1)
[26] = molecular target: HIV-1 Env of pseudovirus Ce0393_C3 (HIV-1)
[27] = molecular target: HIV-1 Env of pseudovirus 6240_08_TA5_4622 (HIV-1)
[28] = molecular target: HIV-1 Env of pseudovirus CAAN5342.A2 (HIV-1)
[29] = molecular target: HIV-1 Env of pseudovirus HIV-001428-2.42 (HIV-1)
[30] = molecular target: HIV-1 Env of pseudovirus MS208.A1 (HIV-1)
[31] = molecular target: HIV-1 Env of pseudovirus REJO4541.67 (HIV-1)
[32] = molecular target: HIV-1 Env of pseudovirus AC10.0.29 (HIV-1)
[33] = molecular target: HIV-1 Env of pseudovirus Ce703010054_2A2 (HIV-1)
[34] = molecular target: HIV-1 Env of pseudovirus WITO4160.33 (HIV-1)

Substance: N49P7.2 (antibody)
- IC50 [1]: 0.316 µg/mL
- IC80 [1]: 1.06 µg/mL
- MPI [1]: 100
- IC50 [2]: 0.161 µg/mL
- IC80 [2]: 0.671 µg/mL
- MPI [2]: 100
- IC50 [3]: 2.77 µg/mL
- IC80 [3]: 23.9 µg/mL
- MPI [3]: 90
- IC50 [4]: > 50 µg/mL
- IC80 [4]: > 50 µg/mL
- MPI [4]: 18
- IC50 [5]: 27.5 µg/mL
- IC80 [5]: > 50 µg/mL
- MPI [5]: 53
- IC50 [6]: 0.768 µg/mL
- IC80 [6]: 2.32 µg/mL
- MPI [6]: 100
- IC50 [7]: 0.258 µg/mL
- IC80 [7]: 0.716 µg/mL
- MPI [7]: 100
- IC50 [8]: 0.167 µg/mL
- IC80 [8]: 0.527 µg/mL
- MPI [8]: 100
- IC50 [9]: > 50 µg/mL
- IC80 [9]: > 50 µg/mL
- MPI [9]: 4
- IC50 [10]: 0.322 µg/mL
- IC80 [10]: 1.49 µg/mL
- MPI [10]: 100
- IC50 [11]: 0.02 µg/mL
- IC80 [11]: 0.047 µg/mL
- MPI [11]: 100

Substance: N49P11 (antibody)
- IC50 [1]: 9.78 µg/mL
- IC80 [1]: 24.2 µg/mL
- MPI [1]: 100
- IC50 [2]: 5.36 µg/mL
- IC80 [2]: 18.4 µg/mL
- MPI [2]: 100
- IC50 [3]: 8.75 µg/mL
- IC80 [3]: 21.4 µg/mL
- MPI [3]: 100
- IC50 [4]: 4.24 µg/mL
- IC80 [4]: 16.6 µg/mL
- MPI [4]: 100
- IC50 [5]: 5.99 µg/mL
- IC80 [5]: 20.7 µg/mL
- MPI [5]: 100
- IC50 [6]: 2.52 µg/mL
- IC80 [6]: 12.9 µg/mL
- MPI [6]: 100
- IC50 [7]: 5.29 µg/mL
- IC80 [7]: 16.5 µg/mL
- MPI [7]: 100
- IC50 [8]: 0.418 µg/mL
- IC80 [8]: 3.83 µg/mL
- MPI [8]: 100
- IC50 [9]: 6.47 µg/mL
- IC80 [9]: 22.9 µg/mL
- MPI [9]: 100
- IC50 [10]: 5.33 µg/mL
- IC80 [10]: 46.7 µg/mL
- MPI [10]: 100
- IC50 [11]: 0.034 µg/mL
- IC80 [11]: 0.12 µg/mL
- MPI [11]: 100

Substance: VRC01 (antibody)
- IC50, titer in TZM.bl cells [12]: 0.54 µg/mL
- IC80, titer in TZM.bl cells [12]: 2.7 µg/mL
- IC50, titer in TZM.bl cells [1]: 0.34 µg/mL
- IC80, titer in TZM.bl cells [1]: 1.2 µg/mL
- IC50, titer in TZM.bl cells [13]: 0.54 µg/mL
- IC80, titer in TZM.bl cells [13]: 2.08 µg/mL
- IC50, titer in TZM.bl cells [2]: 0.51 µg/mL
- IC80, titer in TZM.bl cells [2]: 1.54 µg/mL
- IC50, titer in TZM.bl cells [14]: 0.17 µg/mL
- IC80, titer in TZM.bl cells [14]: 0.54 µg/mL
- IC50, titer in TZM.bl cells [15]: 0.12 µg/mL
- IC80, titer in TZM.bl cells [15]: 0.26 µg/mL
- IC50, titer in TZM.bl cells [3]: 0.16 µg/mL
- IC80, titer in TZM.bl cells [3]: 0.42 µg/mL
- IC50, titer in TZM.bl cells [16]: 0.05 µg/mL
- IC80, titer in TZM.bl cells [16]: 0.23 µg/mL
- IC50, titer in TZM.bl cells [17]: > 10 µg/mL
- IC80, titer in TZM.bl cells [17]: > 10 µg/mL
- IC50, titer in TZM.bl cells [5]: 0.07 µg/mL
- IC80, titer in TZM.bl cells [5]: 0.19 µg/mL
- IC50, titer in TZM.bl cells [18]: 0.49 µg/mL
- IC80, titer in TZM.bl cells [18]: 1.6 µg/mL
- IC50, titer in TZM.bl cells [19]: 0.21 µg/mL
- IC80, titer in TZM.bl cells [19]: 0.83 µg/mL
- IC50, titer in TZM.bl cells [20]: 2.25 µg/mL
- IC80, titer in TZM.bl cells [20]: 8.1 µg/mL
- IC50, titer in TZM.bl cells [21]: 0.06 µg/mL
- IC80, titer in TZM.bl cells [21]: 0.185 µg/mL
- IC50, titer in TZM.bl cells [22]: 0.35 µg/mL
- IC80, titer in TZM.bl cells [22]: 1.29 µg/mL
- IC50, titer in TZM.bl cells [7]: 0.46 µg/mL
- IC80, titer in TZM.bl cells [7]: 1.26 µg/mL
- IC50, titer in TZM.bl cells [23]: 0.29 µg/mL
- IC80, titer in TZM.bl cells [23]: 1.48 µg/mL
- IC50, titer in TZM.bl cells [24]: > 50 µg/mL
- IC80, titer in TZM.bl cells [24]: > 50 µg/mL
- IC50, titer in TZM.bl cells [25]: 2.8 µg/mL
- IC80, titer in TZM.bl cells [25]: 12.7 µg/mL
- IC50, titer in TZM.bl cells [26]: 0.62 µg/mL
- IC80, titer in TZM.bl cells [26]: 2.37 µg/mL
- IC50, titer in TZM.bl cells [27]: 0.61 µg/mL
- IC80, titer in TZM.bl cells [27]: 1.82 µg/mL
- IC50, titer in TZM.bl cells [8]: 0.7 µg/mL
- IC80, titer in TZM.bl cells [8]: 2.7 µg/mL
- IC50, titer in TZM.bl cells [28]: 0.82 µg/mL
- IC80, titer in TZM.bl cells [28]: 2.8 µg/mL
- IC50, titer in TZM.bl cells [29]: 0.02 µg/mL
- IC80, titer in TZM.bl cells [29]: 0.06 µg/mL
- IC50, titer in TZM.bl cells [30]: 0.1 µg/mL
- IC80, titer in TZM.bl cells [30]: 0.46 µg/mL
- IC50, titer in TZM.bl cells [9]: > 50 µg/mL
- IC80, titer in TZM.bl cells [9]: > 50 µg/mL
- IC50, titer in TZM.bl cells [31]: 0.06 µg/mL
- IC80, titer in TZM.bl cells [31]: 0.25 µg/mL
- IC50, titer in TZM.bl cells [32]: 2.2 µg/mL
- IC80, titer in TZM.bl cells [32]: 6.5 µg/mL
- IC50, titer in TZM.bl cells [33]: 0.53 µg/mL
- IC80, titer in TZM.bl cells [33]: 1.84 µg/mL
- IC50, titer in TZM.bl cells [11]: 0.08 µg/mL
- IC80, titer in TZM.bl cells [11]: 0.32 µg/mL
- IC50, titer in TZM.bl cells [34]: 0.15 µg/mL
- IC80, titer in TZM.bl cells [34]: 0.41 µg/mL

Source: US20230002480A1
